Experimental data: FireProtDB (doi:10.1021/bi00123a002)
Several values for one entry are separate records, joined by “and”; a condition that tells them apart may be missing. Equal entries are not always repeated.

Settings: Salmonella typhimurium (strain LT2 / SGSC1412 / ATCC 700720), pH 7.8, 25 °C, Urea, CD, Potassium phosphate 10 mM, reversible: yes, whole UniProt chain shown

B1: Tryptophan synthase alpha chain wild type, P00929 (protein)
chain: MERYENLFAQLNDRREGAFVPFVTLGDPGIEQSLKIIDTLIDAGADALELGVPFSDPLADGPTIQNANLRAFAAGVTPAQCFEMLALIREKHPTIPIGLLMYANLVFNNGIDAFYARCEQVGVDSVLVADVPVEESAPFRQAALRHNIAPIFICPPNADDDLLRQVASYGRGYTYLLSRSGVTGAENRGALPLHHLIEKLKEYHAAPALQGFGISSPEQVSAAVRAGAAGAISGSAIVKIIEKNLASPKQMLAELRSFVSAMKAASRA
For B1, which unfolding free energy is on record?
Its unfolding free energy is 13.2 kcal/mol.

And the denaturant m value (transition: 3)?
The denaturant m value was 2.68 kcal/mol/M and 1.6 kcal/mol/M.

What about the “denaturant midpoint (higher = more stable)” value (transition: 3) of the same protein?
The value was 2.75 M and 3.64 M.

And the unfolding free energy (transition: 3)?
Its unfolding free energy is 7.35 kcal/mol and 5.81 kcal/mol.
